The text below walks through data of PMC12246617, “Cryo-EM structures reveal the PP2A–B55α and Eya3 interaction that can be disrupted by a peptide inhibitor” (The Journal of Biological Chemistry, 2025).

This test deals with His-hB55 (human PP2A regulatory subunit B55α) (human) (UniProt P63151). Briefly: MST; His-B55 labelled with RED-Tris-NTA dye, added to serial dilutions of mEya3 (wild type or mutant) in PBS with 0.05% Tween-20; Monolith NT.115 Pico.
Sequence of His-hB55 (human PP2A regulatory subunit B55α) (human) (P63151 whole entry): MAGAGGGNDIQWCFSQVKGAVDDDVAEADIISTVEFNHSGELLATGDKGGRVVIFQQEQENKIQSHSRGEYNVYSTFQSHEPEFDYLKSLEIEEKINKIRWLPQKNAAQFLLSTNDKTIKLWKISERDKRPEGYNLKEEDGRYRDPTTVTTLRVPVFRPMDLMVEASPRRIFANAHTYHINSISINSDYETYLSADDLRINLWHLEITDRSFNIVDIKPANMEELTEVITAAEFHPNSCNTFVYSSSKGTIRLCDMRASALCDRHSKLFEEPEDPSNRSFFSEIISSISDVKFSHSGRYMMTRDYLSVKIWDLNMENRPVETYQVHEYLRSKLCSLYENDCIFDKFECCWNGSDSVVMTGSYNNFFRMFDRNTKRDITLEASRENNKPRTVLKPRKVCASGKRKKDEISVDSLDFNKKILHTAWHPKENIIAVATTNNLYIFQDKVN

Consider “mouse Eya3 (mEya3), wild type (from UniProt P97480 1-510) (natural protein)”, for which the Kd (in general, the concentration at which binding is half-saturated) came out at 1040 nM.
